{"source": "paper PMC9776569", "origin": "cited, not measured here", "key": {"Lys116": {"molecular_target": "Lys116 (UniProt position 134, WRNRCKGTDVQ)"}, "Asp101": {"molecular_target": "Asp101 (UniProt position 119, KKIVSDGNGMN)"}, "Tyr23": {"molecular_target": "Tyr23 (UniProt position 41, DNYRGYSLGNW)"}, "Asp87": {"molecular_target": "Asp87 (UniProt position 105, ALLSSDITASV)"}, "Tyr53": {"molecular_target": "Tyr53 (UniProt position 71, DGSTDYGILQI)"}, "Lys33": {"molecular_target": "Lys33 (UniProt position 51, WVCAAKFESNF)"}, "Asp18": {"molecular_target": "Asp18 (UniProt position 36, KRHGLDNYRGY)"}, "Lys97": {"molecular_target": "Lys97 (UniProt position 115, VNCAKKIVSDG)"}, "Lys1": {"molecular_target": "Lys1 (UniProt position 19, LAALGKVFGRC)"}, "His15": {"molecular_target": "His15 (UniProt position 33, AAMKRHGLDNY)"}, "Asp48": {"molecular_target": "Asp48 (UniProt position 66, TNRNTDGSTDY)"}, "Glu35": {"molecular_target": "Glu35 (UniProt position 53, CAAKFESNFNT)"}, "Lys96": {"molecular_target": "Lys96 (UniProt position 114, SVNCAKKIVSD)"}, "Lys13": {"molecular_target": "Lys13 (UniProt position 31, LAAAMKRHGLD)"}, "Asp66": {"molecular_target": "Asp66 (UniProt position 84, RWWCNDGRTPG)"}, "Nterm1 [1]": {"molecular_target": "Nterm1 (UniProt position 19, LAALGKVFGRC)"}, "Cterm129": {"molecular_target": "Cterm129 (UniProt position 147, IRGCRL-----)"}, "Tyr20": {"molecular_target": "Tyr20 (UniProt position 38, HGLDNYRGYSL)"}, "Glu7": {"molecular_target": "Glu7 (UniProt position 25, VFGRCELAAAM)"}, "Asp52": {"molecular_target": "Asp52 (UniProt position 70, TDGSTDYGILQ)"}, "Asp119": {"molecular_target": "Asp119 (UniProt position 137, RCKGTDVQAWI)"}, "His6": {"molecular_target": "His6 (UniProt position 7, SDKIIHLTDDS)", "conditions": "redox state not stated in this article"}, "Cys35": {"molecular_target": "Cys35 (UniProt position 36, EWCGPCKMIAP)", "conditions": "reduced (free thiols at Cys-32 and Cys-35)"}, "Nterm1 [2]": {"molecular_target": "Nterm1 (UniProt position 2, ----MSDKIIH)", "conditions": "redox state not stated in this article"}, "Cys32": {"molecular_target": "Cys32 (UniProt position 33, FWAEWCGPCKM)", "conditions": "reduced (free thiols at Cys-32 and Cys-35)"}, "Asp20 [3]": {"molecular_target": "Asp20 (UniProt position 21, DVLKADGAILV)", "conditions": "redox state not stated in this article"}, "Asp26 [4]": {"molecular_target": "Asp26 (UniProt position 27, GAILVDFWAEW)", "conditions": "redox state not stated in this article"}, "Asp64": {"molecular_target": "Asp64 (UniProt position 64, VDDCQDVASEC)", "conditions": "redox state not stated in this article"}, "Glu88": {"molecular_target": "Glu88 (UniProt position 88, GQKVGEFSGAN)", "conditions": "redox state not stated in this article"}, "Glu6": {"molecular_target": "Glu6 (UniProt position 6, MVKQIESKTAF)", "conditions": "redox state not stated in this article"}, "Glu68": {"molecular_target": "Glu68 (UniProt position 68, QDVASECEVKC)", "conditions": "redox state not stated in this article"}, "Asp58": {"molecular_target": "Asp58 (UniProt position 58, IFLEVDVDDCQ)", "conditions": "redox state not stated in this article"}, "Glu95": {"molecular_target": "Glu95 (UniProt position 95, SGANKEKLEAT)", "conditions": "redox state not stated in this article"}, "Asp60": {"molecular_target": "Asp60 (UniProt position 60, LEVDVDDCQDV)", "conditions": "redox state not stated in this article"}, "Glu103": {"molecular_target": "Glu103 (UniProt position 103, EATINELV---)", "conditions": "redox state not stated in this article"}, "Glu56": {"molecular_target": "Glu56 (UniProt position 56, NVIFLEVDVDD)", "conditions": "redox state not stated in this article"}, "Asp20 [5]": {"molecular_target": "Asp20 (UniProt position 20, LDAAGDKLVVV)", "conditions": "redox state not stated in this article"}, "Asp61": {"molecular_target": "Asp61 (UniProt position 61, EVDVDDCQDVA)", "conditions": "redox state not stated in this article"}, "Glu47": {"molecular_target": "Glu47 (UniProt position 47, FHSLSEKYSNV)", "conditions": "redox state not stated in this article"}, "Asp26 [6]": {"molecular_target": "Asp26 (UniProt position 26, KLVVVDFSATW)", "conditions": "redox state not stated in this article"}, "Asp16": {"molecular_target": "Asp16 (UniProt position 16, FQEALDAAGDK)", "conditions": "redox state not stated in this article"}, "Glu13": {"molecular_target": "Glu13 (UniProt position 13, KTAFQEALDAA)", "conditions": "redox state not stated in this article"}, "Glu98": {"molecular_target": "Glu98 (UniProt position 98, NKEKLEATINE)", "conditions": "redox state not stated in this article"}, "Glu70": {"molecular_target": "Glu70 (UniProt position 70, VASECEVKCMP)", "conditions": "redox state not stated in this article"}, "Glu67": {"molecular_target": "Glu67 (UniProt position 149, TKKMVENAKKI)"}, "Glu52": {"molecular_target": "Glu52 (UniProt position 134, PKKGVEKYGPE)"}, "Glu135": {"molecular_target": "Glu135 (UniProt position 217, AQAKKEKLNIW)"}, "Glu101": {"molecular_target": "Glu101 (UniProt position 183, GKMVNEALVRQ)"}, "His46": {"molecular_target": "His46 (UniProt position 128, TPETKHPKKGV)"}, "His8": {"molecular_target": "His8 (UniProt position 90, STKKLHKEPAT)"}, "His121": {"molecular_target": "His121 (UniProt position 203, KPNNTHEQHLR)"}, "Asp146": {"molecular_target": "Asp146 (UniProt position 228, SEDNADSGQ--)"}, "Glu43": {"molecular_target": "Glu43 (UniProt position 125, LVDTPETKHPK)"}, "Asp95": {"molecular_target": "Asp95 (UniProt position 177, AYIYADGKMVN)"}, "Glu129": {"molecular_target": "Glu129 (UniProt position 211, HLRKSEAQAKK)"}, "His124": {"molecular_target": "His124 (UniProt position 206, NTHEQHLRKSE)"}, "Glu73": {"molecular_target": "Glu73 (UniProt position 155, NAKKIEVEFDK)"}, "Glu75": {"molecular_target": "Glu75 (UniProt position 157, KKIEVEFDKGQ)"}, "Glu142": {"molecular_target": "Glu142 (UniProt position 224, LNIWSEDNADS)"}, "Asp143": {"molecular_target": "Asp143 (UniProt position 225, NIWSEDNADSG)"}, "Glu122": {"molecular_target": "Glu122 (UniProt position 204, PNNTHEQHLRK)"}, "Glu57": {"molecular_target": "Glu57 (UniProt position 139, EKYGPEASAFT)"}, "Glu10": {"molecular_target": "Glu10 (UniProt position 92, KKLHKEPATLI)"}, "Asp40": {"molecular_target": "Asp40 (UniProt position 122, RLLLVDTPETK)"}}}
{"substance": "Hen egg-white lysozyme (HEWL) (Gallus gallus)", "values": [{"measurement": "pKa", "setting": "Lys116", "result": 10.40}, {"measurement": "pKa", "setting": "Asp101", "result": 4.09}, {"measurement": "pKa", "setting": "Tyr23", "result": 9.80}, {"measurement": "pKa", "setting": "Asp87", "result": 2.07}, {"measurement": "pKa", "setting": "Tyr53", "result": 12.10}, {"measurement": "pKa", "setting": "Lys33", "result": 10.60}, {"measurement": "pKa", "setting": "Asp18", "result": 2.66}, {"measurement": "pKa", "setting": "Lys97", "result": 10.30}, {"measurement": "pKa", "setting": "Lys1", "result": 10.90}, {"measurement": "pKa", "setting": "His15", "result": 5.36}, {"measurement": "pKa", "setting": "Asp48", "result": 1.60}, {"measurement": "pKa", "setting": "Glu35", "result": 6.20}, {"measurement": "pKa", "setting": "Lys96", "result": 10.80}, {"measurement": "pKa", "setting": "Lys13", "result": 10.60}, {"measurement": "pKa", "setting": "Asp66", "result": 0.90}, {"measurement": "pKa", "setting": "Nterm1 [1]", "result": 7.90}, {"measurement": "pKa", "setting": "Cterm129", "result": 2.75}, {"measurement": "pKa", "setting": "Tyr20", "result": 10.30}, {"measurement": "pKa", "setting": "Glu7", "result": 2.85}, {"measurement": "pKa", "setting": "Asp52", "result": 3.68}, {"measurement": "pKa", "setting": "Asp119", "result": 3.20}]}
{"substance": "Escherichia coli thioredoxin 1 (EcTrx) (Escherichia coli)", "values": [{"measurement": "pKa", "setting": "His6", "result": 6.20}, {"measurement": "pKa", "setting": "Cys35", "result": 9.90}, {"measurement": "pKa", "setting": "Nterm1 [2]", "result": 7.40}, {"measurement": "pKa", "setting": "Cys32", "result": 7.10}, {"measurement": "pKa", "setting": "Asp20 [3]", "result": 3.80}, {"measurement": "pKa", "setting": "Asp26 [4]", "result": 7.50}]}
{"substance": "Human thioredoxin (hTrx) (Homo sapiens)", "values": [{"measurement": "pKa", "setting": "Asp64", "result": 3.20}, {"measurement": "pKa", "setting": "Glu88", "result": 3.70}, {"measurement": "pKa", "setting": "Glu6", "result": 4.80}, {"measurement": "pKa", "setting": "Glu68", "result": 4.90}, {"measurement": "pKa", "setting": "Asp58", "result": 2.80}, {"measurement": "pKa", "setting": "Glu95", "result": 4.10}, {"measurement": "pKa", "setting": "Asp60", "result": 4.20}, {"measurement": "pKa", "setting": "Glu103", "result": 4.40}, {"measurement": "pKa", "setting": "Glu56", "result": 3.10}, {"measurement": "pKa", "setting": "Asp20 [5]", "result": 3.80}, {"measurement": "pKa", "setting": "Asp61", "result": 5.30}, {"measurement": "pKa", "setting": "Glu47", "result": 4.10}, {"measurement": "pKa", "setting": "Asp26 [6]", "result": 9.90}, {"measurement": "pKa", "setting": "Asp16", "result": 4.00}, {"measurement": "pKa", "setting": "Glu13", "result": 4.40}, {"measurement": "pKa", "setting": "Glu98", "result": 3.90}, {"measurement": "pKa", "setting": "Glu70", "result": 4.60}]}
{"substance": "Staphylococcal nuclease (SNase) (Staphylococcus aureus)", "values": [{"measurement": "pKa", "setting": "Glu67", "result": 3.76}, {"measurement": "pKa", "setting": "Glu52", "result": 3.93}, {"measurement": "pKa", "setting": "Glu135", "result": 3.76}, {"measurement": "pKa", "setting": "Glu101", "result": 3.81}, {"measurement": "pKa", "setting": "His46", "result": 5.86}, {"measurement": "pKa", "setting": "His8", "result": 6.52}, {"measurement": "pKa", "setting": "His121", "result": 5.30}, {"measurement": "pKa", "setting": "Asp146", "result": 3.86}, {"measurement": "pKa", "setting": "Glu43", "result": 4.32}, {"measurement": "pKa", "setting": "Asp95", "result": 2.16}, {"measurement": "pKa", "setting": "Glu129", "result": 3.75}, {"measurement": "pKa", "setting": "His124", "result": 5.73}, {"measurement": "pKa", "setting": "Glu73", "result": 3.31}, {"measurement": "pKa", "setting": "Glu75", "result": 3.26}, {"measurement": "pKa", "setting": "Glu142", "result": 4.49}, {"measurement": "pKa", "setting": "Asp143", "result": 3.80}, {"measurement": "pKa", "setting": "Glu122", "result": 3.89}, {"measurement": "pKa", "setting": "Glu57", "result": 3.49}, {"measurement": "pKa", "setting": "Glu10", "result": 2.82}, {"measurement": "pKa", "setting": "Asp40", "result": 3.87}]}
